Starred links: 1 amine or outer side, 2 acyl side, 3 side chain; linkers in the order of their positions; H or OH if unused. Non-standard residues stand in square brackets, D forms with d. Groups on a side chain read outwards from the residue. No end group written: not given here. *: point of attachment. C18 diacid = O=C(O)CCCCCCCCCCCCCCCCC(=O)*; γGlu = O=C(O)[C@H](CCC(=O)[*:2])N[*:1]; αMeF = C[C@](N)(Cc1ccccc1)C(=O)O; AEEA = NCCOCCOCC(=O)O; Aib = CC(C)(N)C(=O)O
B1: Peptide 35 (peptide)
peptide: H[Aib]QGTFTSDVSK[αMeF]LDTK([AEEA-AEEA-γGlu-C18 diacid])RAQDFVQWLL[Aib]T-OH
modifications: N-terminus assumed
SMILES: CC(C)C[C@H](NC(=O)[C@H](Cc1c[nH]c2ccccc12)NC(=O)[C@H](CCC(N)=O)NC(=O)[C@@H](NC(=O)[C@H](Cc1ccccc1)NC(=O)[C@H](CC(=O)O)NC(=O)[C@H](CCC(N)=O)NC(=O)[C@H](C)NC(=O)[C@H](CCCNC(=N)N)NC(=O)[C@H](CCCCNC(=O)COCCOCCNC(=O)COCCOCCNC(=O)CC[C@H](NC(=O)CCCCCCCCCCCCCCCCC(=O)O)C(=O)O)NC(=O)[C@@H](NC(=O)[C@H](CC(=O)O)NC(=O)[C@H](CC(C)C)NC(=O)[C@](C)(Cc1ccccc1)NC(=O)[C@H](CCCCN)NC(=O)[C@H](CO)NC(=O)[C@@H](NC(=O)[C@H](CC(=O)O)NC(=O)[C@H](CO)NC(=O)[C@@H](NC(=O)[C@H](Cc1ccccc1)NC(=O)[C@@H](NC(=O)CNC(=O)[C@H](CCC(N)=O)NC(=O)C(C)(C)NC(=O)[C@@H](N)Cc1c[nH]cn1)[C@@H](C)O)[C@@H](C)O)C(C)C)[C@@H](C)O)C(C)C)C(=O)N[C@@H](CC(C)C)C(=O)NC(C)(C)C(=O)N[C@H](C(=O)O)[C@@H](C)O
B2: Peptide 36 (peptide)
peptide: H[Aib]QGTFTSDVSK[αMeF]LDSK([AEEA-AEEA-γGlu-C18 diacid])RARDFVQWLL[Aib]T-OH
modifications: N-terminus assumed
SMILES: CC(C)C[C@H](NC(=O)[C@H](Cc1c[nH]c2ccccc12)NC(=O)[C@H](CCC(N)=O)NC(=O)[C@@H](NC(=O)[C@H](Cc1ccccc1)NC(=O)[C@H](CC(=O)O)NC(=O)[C@H](CCCNC(=N)N)NC(=O)[C@H](C)NC(=O)[C@H](CCCNC(=N)N)NC(=O)[C@H](CCCCNC(=O)COCCOCCNC(=O)COCCOCCNC(=O)CC[C@H](NC(=O)CCCCCCCCCCCCCCCCC(=O)O)C(=O)O)NC(=O)[C@H](CO)NC(=O)[C@H](CC(=O)O)NC(=O)[C@H](CC(C)C)NC(=O)[C@](C)(Cc1ccccc1)NC(=O)[C@H](CCCCN)NC(=O)[C@H](CO)NC(=O)[C@@H](NC(=O)[C@H](CC(=O)O)NC(=O)[C@H](CO)NC(=O)[C@@H](NC(=O)[C@H](Cc1ccccc1)NC(=O)[C@@H](NC(=O)CNC(=O)[C@H](CCC(N)=O)NC(=O)C(C)(C)NC(=O)[C@@H](N)Cc1c[nH]cn1)[C@@H](C)O)[C@@H](C)O)C(C)C)C(C)C)C(=O)N[C@@H](CC(C)C)C(=O)NC(C)(C)C(=O)N[C@H](C(=O)O)[C@@H](C)O
B3: Peptide 37 (peptide)
peptide: H[Aib]QGTFTSDVSK[αMeF]LDSK([AEEA-AEEA-γGlu-C18 diacid])RAEDFVQWLL[Aib]T-OH
modifications: N-terminus assumed
SMILES: CC(C)C[C@H](NC(=O)[C@H](Cc1c[nH]c2ccccc12)NC(=O)[C@H](CCC(N)=O)NC(=O)[C@@H](NC(=O)[C@H](Cc1ccccc1)NC(=O)[C@H](CC(=O)O)NC(=O)[C@H](CCC(=O)O)NC(=O)[C@H](C)NC(=O)[C@H](CCCNC(=N)N)NC(=O)[C@H](CCCCNC(=O)COCCOCCNC(=O)COCCOCCNC(=O)CC[C@H](NC(=O)CCCCCCCCCCCCCCCCC(=O)O)C(=O)O)NC(=O)[C@H](CO)NC(=O)[C@H](CC(=O)O)NC(=O)[C@H](CC(C)C)NC(=O)[C@](C)(Cc1ccccc1)NC(=O)[C@H](CCCCN)NC(=O)[C@H](CO)NC(=O)[C@@H](NC(=O)[C@H](CC(=O)O)NC(=O)[C@H](CO)NC(=O)[C@@H](NC(=O)[C@H](Cc1ccccc1)NC(=O)[C@@H](NC(=O)CNC(=O)[C@H](CCC(N)=O)NC(=O)C(C)(C)NC(=O)[C@@H](N)Cc1c[nH]cn1)[C@@H](C)O)[C@@H](C)O)C(C)C)C(C)C)C(=O)N[C@@H](CC(C)C)C(=O)NC(C)(C)C(=O)N[C@H](C(=O)O)[C@@H](C)O
B4: Peptide 519 (peptide)
peptide: H[Aib]QGTFTSDVSK[αMeF]LDTK([γGlu-γGlu-AEEA-AEEA-γGlu-γGlu-C18 diacid])RARDFVQWLLE[Aib]G-OH
modifications: N-terminus assumed
SMILES: CC(C)C[C@H](NC(=O)[C@H](Cc1c[nH]c2ccccc12)NC(=O)[C@H](CCC(N)=O)NC(=O)[C@@H](NC(=O)[C@H](Cc1ccccc1)NC(=O)[C@H](CC(=O)O)NC(=O)[C@H](CCCNC(=N)N)NC(=O)[C@H](C)NC(=O)[C@H](CCCNC(=N)N)NC(=O)[C@H](CCCCNC(=O)CC[C@H](NC(=O)CC[C@H](NC(=O)COCCOCCNC(=O)COCCOCCNC(=O)CC[C@H](NC(=O)CC[C@H](NC(=O)CCCCCCCCCCCCCCCCC(=O)O)C(=O)O)C(=O)O)C(=O)O)C(=O)O)NC(=O)[C@@H](NC(=O)[C@H](CC(=O)O)NC(=O)[C@H](CC(C)C)NC(=O)[C@](C)(Cc1ccccc1)NC(=O)[C@H](CCCCN)NC(=O)[C@H](CO)NC(=O)[C@@H](NC(=O)[C@H](CC(=O)O)NC(=O)[C@H](CO)NC(=O)[C@@H](NC(=O)[C@H](Cc1ccccc1)NC(=O)[C@@H](NC(=O)CNC(=O)[C@H](CCC(N)=O)NC(=O)C(C)(C)NC(=O)[C@@H](N)Cc1c[nH]cn1)[C@@H](C)O)[C@@H](C)O)C(C)C)[C@@H](C)O)C(C)C)C(=O)N[C@@H](CC(C)C)C(=O)N[C@@H](CCC(=O)O)C(=O)NC(C)(C)C(=O)NCC(=O)O
B5: Peptide 34 (peptide)
peptide: H[Aib]QGTFTSDVSK[αMeF]LDSK([AEEA-AEEA-γGlu-C18 diacid])RAQDFVQWLL[Aib]E-OH
modifications: N-terminus assumed
SMILES: CC(C)C[C@H](NC(=O)[C@H](Cc1c[nH]c2ccccc12)NC(=O)[C@H](CCC(N)=O)NC(=O)[C@@H](NC(=O)[C@H](Cc1ccccc1)NC(=O)[C@H](CC(=O)O)NC(=O)[C@H](CCC(N)=O)NC(=O)[C@H](C)NC(=O)[C@H](CCCNC(=N)N)NC(=O)[C@H](CCCCNC(=O)COCCOCCNC(=O)COCCOCCNC(=O)CC[C@H](NC(=O)CCCCCCCCCCCCCCCCC(=O)O)C(=O)O)NC(=O)[C@H](CO)NC(=O)[C@H](CC(=O)O)NC(=O)[C@H](CC(C)C)NC(=O)[C@](C)(Cc1ccccc1)NC(=O)[C@H](CCCCN)NC(=O)[C@H](CO)NC(=O)[C@@H](NC(=O)[C@H](CC(=O)O)NC(=O)[C@H](CO)NC(=O)[C@@H](NC(=O)[C@H](Cc1ccccc1)NC(=O)[C@@H](NC(=O)CNC(=O)[C@H](CCC(N)=O)NC(=O)C(C)(C)NC(=O)[C@@H](N)Cc1c[nH]cn1)[C@@H](C)O)[C@@H](C)O)C(C)C)C(C)C)C(=O)N[C@@H](CC(C)C)C(=O)NC(C)(C)C(=O)N[C@@H](CCC(=O)O)C(=O)O
B6: Peptide 520 (peptide)
peptide: H[Aib]QGTFTSDVSK[αMeF]LDTKRARDFVQWLLE[Aib]G-OH
modifications: not fully specified (residue 17)
B7: Peptide 38 (peptide)
peptide: H[Aib]QGTFTSDVSK[αMeF]LDSK([AEEA-AEEA-γGlu-C18 diacid])RAQDFVEWLL[Aib]T-OH
modifications: N-terminus assumed
SMILES: CC(C)C[C@H](NC(=O)[C@H](Cc1c[nH]c2ccccc12)NC(=O)[C@H](CCC(=O)O)NC(=O)[C@@H](NC(=O)[C@H](Cc1ccccc1)NC(=O)[C@H](CC(=O)O)NC(=O)[C@H](CCC(N)=O)NC(=O)[C@H](C)NC(=O)[C@H](CCCNC(=N)N)NC(=O)[C@H](CCCCNC(=O)COCCOCCNC(=O)COCCOCCNC(=O)CC[C@H](NC(=O)CCCCCCCCCCCCCCCCC(=O)O)C(=O)O)NC(=O)[C@H](CO)NC(=O)[C@H](CC(=O)O)NC(=O)[C@H](CC(C)C)NC(=O)[C@](C)(Cc1ccccc1)NC(=O)[C@H](CCCCN)NC(=O)[C@H](CO)NC(=O)[C@@H](NC(=O)[C@H](CC(=O)O)NC(=O)[C@H](CO)NC(=O)[C@@H](NC(=O)[C@H](Cc1ccccc1)NC(=O)[C@@H](NC(=O)CNC(=O)[C@H](CCC(N)=O)NC(=O)C(C)(C)NC(=O)[C@@H](N)Cc1c[nH]cn1)[C@@H](C)O)[C@@H](C)O)C(C)C)C(C)C)C(=O)N[C@@H](CC(C)C)C(=O)NC(C)(C)C(=O)N[C@H](C(=O)O)[C@@H](C)O
B8: Peptide 33 (peptide)
peptide: H[Aib]QGTFTSDVSK[αMeF]LDSK([AEEA-AEEA-γGlu-C18 diacid])RAQDFVQWLE[Aib]T-OH
modifications: N-terminus assumed
SMILES: CC(C)C[C@H](NC(=O)[C@H](Cc1c[nH]c2ccccc12)NC(=O)[C@H](CCC(N)=O)NC(=O)[C@@H](NC(=O)[C@H](Cc1ccccc1)NC(=O)[C@H](CC(=O)O)NC(=O)[C@H](CCC(N)=O)NC(=O)[C@H](C)NC(=O)[C@H](CCCNC(=N)N)NC(=O)[C@H](CCCCNC(=O)COCCOCCNC(=O)COCCOCCNC(=O)CC[C@H](NC(=O)CCCCCCCCCCCCCCCCC(=O)O)C(=O)O)NC(=O)[C@H](CO)NC(=O)[C@H](CC(=O)O)NC(=O)[C@H](CC(C)C)NC(=O)[C@](C)(Cc1ccccc1)NC(=O)[C@H](CCCCN)NC(=O)[C@H](CO)NC(=O)[C@@H](NC(=O)[C@H](CC(=O)O)NC(=O)[C@H](CO)NC(=O)[C@@H](NC(=O)[C@H](Cc1ccccc1)NC(=O)[C@@H](NC(=O)CNC(=O)[C@H](CCC(N)=O)NC(=O)C(C)(C)NC(=O)[C@@H](N)Cc1c[nH]cn1)[C@@H](C)O)[C@@H](C)O)C(C)C)C(C)C)C(=O)N[C@@H](CCC(=O)O)C(=O)NC(C)(C)C(=O)N[C@H](C(=O)O)[C@@H](C)O

Assays:
[1] = target: human GLP-1 receptor (hGLP-1R) (human, UniProt P43220 24-463); test: cell-based or functional assay
[2] = target: human glucagon receptor (hGCGR) (human, UniProt P47871 26-477); test: cell-based or functional assay
human glucagon receptor (hGCGR), sequence (P47871 26-477): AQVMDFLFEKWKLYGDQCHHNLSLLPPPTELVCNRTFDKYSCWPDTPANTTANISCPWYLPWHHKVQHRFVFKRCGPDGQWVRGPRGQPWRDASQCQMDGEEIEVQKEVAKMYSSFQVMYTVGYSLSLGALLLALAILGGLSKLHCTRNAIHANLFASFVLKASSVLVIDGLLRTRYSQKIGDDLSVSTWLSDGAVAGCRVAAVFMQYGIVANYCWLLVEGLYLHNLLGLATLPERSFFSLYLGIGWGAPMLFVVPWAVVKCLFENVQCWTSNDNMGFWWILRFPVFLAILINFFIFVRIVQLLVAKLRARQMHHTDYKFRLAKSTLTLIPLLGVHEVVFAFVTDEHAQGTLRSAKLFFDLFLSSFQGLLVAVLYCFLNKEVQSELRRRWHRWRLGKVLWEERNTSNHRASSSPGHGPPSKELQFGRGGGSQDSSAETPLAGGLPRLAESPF

| Binder | hGLP-1R EC50 (pM) [1] [pM] | hGluc-R EC50 (pM) [2] [pM] |
| --- | --- | --- |
| B1 | 83.7 | 335 |
| B2 | 43.1 | 278 |
| B3 | 68.6 | 2750 |
| B4 | 172 | 386 |
| B5 | 82.4 | 161 |
| B6 | 543 | 1620 |
| B7 | 75.6 | 441 |
| B8 | 213 | 548 |
